Test results taken from US20090252683A1 (Amgen, published 2009).

How the values were obtained:
[1] = target: T1, human EpCAM antigen on Kato III cells or human EpCAM transfected CHO cells (human, UniProt P16422 24-265); test: FACS, Kato III cells or human EpCAM transfected CHO cells, anti-His detection
T1 construct: 137 holds only the extracellular portion; the protein stood whole on cells
T1 sequence: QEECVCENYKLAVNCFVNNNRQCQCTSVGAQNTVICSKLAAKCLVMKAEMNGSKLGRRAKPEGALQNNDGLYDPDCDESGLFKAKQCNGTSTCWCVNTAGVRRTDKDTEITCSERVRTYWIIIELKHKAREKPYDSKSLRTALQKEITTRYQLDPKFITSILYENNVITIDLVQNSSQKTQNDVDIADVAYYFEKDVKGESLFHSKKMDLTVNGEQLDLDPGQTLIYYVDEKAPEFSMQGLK
Procedure: FIG. 3: FACS assay for binding of 5-10LH×SEQ ID NO. 12, 5-10LH×SEQ ID NO. 10, 5-10LH×SEQ ID NO. 16 and 5-10LH×SEQ ID NO. 14 to human Kato III cells expressing EpCAM or human EpCAM transfected CHO cells and to HPB-ALL cells. Cells bound by the respective constructs (depicted as non-filled curves) are shown in comparison to cells incubated only with the detection antibodies (depicted as filled curves). Antigen binding of all bispecific constructs was clearly detectable for the anti human EpCAM specificity as well as for the anti CD3 specificities on the HPB-ALL cell line positive for human CD3.
Binding of the bifunctional constructs to the EpCAM antigen on human Kato III cells expressing EpCAM (ATCC No. HTB-103) or on human EpCAM transfected CHO cells and to the human CD3 antigen on HPB-ALL cells was tested using an FACS assay. For that purpose 2.5×10⁵ cells were incubated with 50 μl of cell culture supernatant containing the construct. The binding of the construct was detected with an anti-His antibody (Penta-His Antibody, BSA free, obtained from Qiagen GmbH, Hilden, FRG) at 2 μg/ml in 50 μl PBS with 2% FCS. […] The samples were measured on a FACSscan (BD biosciences, Heidelberg, FRG). Antigen binding was clearly detectable for the anti human EpCAM specificity as well as for the anti CD3 specificities on the cell line positive for human CD3 (see FIG. 3).

[2] = target: T1, human EpCAM antigen on Kato III cells …; test: cell-based or functional assay
[3] = target: cynomolgus CD3 antigen on cynomolgus PBMC / macaque T cells (Macaca fascicularis (cynomolgus), UniProt Q95LI5 22-117; Q95LI7 23-110; Q95LI8 22-103); test: cell-based or functional assay
Chain of cynomolgus CD3 antigen on cynomolgus PBMC / macaque T cells (Q95LI5 22-117, chain 1 of 3): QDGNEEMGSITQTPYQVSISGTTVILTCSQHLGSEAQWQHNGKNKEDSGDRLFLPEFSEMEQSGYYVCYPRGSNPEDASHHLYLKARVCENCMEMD
Chain of cynomolgus CD3 antigen on cynomolgus PBMC / macaque T cells (Q95LI7 23-110, chain 2 of 3): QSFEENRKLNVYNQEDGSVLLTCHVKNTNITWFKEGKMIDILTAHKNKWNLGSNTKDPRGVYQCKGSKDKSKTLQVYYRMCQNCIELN
Chain of cynomolgus CD3 antigen on cynomolgus PBMC / macaque T cells (Q95LI8 22-103, chain 3 of 3): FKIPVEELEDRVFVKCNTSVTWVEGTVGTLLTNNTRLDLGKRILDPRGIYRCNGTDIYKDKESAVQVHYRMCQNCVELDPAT

[4] = target: T2, cynomolgus EpCAM antigen on transfected CHO cells (cynomolgus, UniProt Q1WER1 24-265 (rhesus entry)); test: FACS on cynomolgus EpCAM transfected CHO cells, anti-His detection
T2 construct: 48 holds the extracellular portion
T2 sequence: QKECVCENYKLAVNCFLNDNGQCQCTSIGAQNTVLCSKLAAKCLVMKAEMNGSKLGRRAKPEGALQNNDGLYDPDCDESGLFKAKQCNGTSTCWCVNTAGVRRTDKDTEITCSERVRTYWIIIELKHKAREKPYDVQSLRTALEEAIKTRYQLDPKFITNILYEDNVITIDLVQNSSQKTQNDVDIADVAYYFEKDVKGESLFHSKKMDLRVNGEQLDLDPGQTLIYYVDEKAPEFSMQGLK
Excerpt: FIG. 8: FACS assay for binding of 2G8LH×SEQ ID NO. 12, 2G8LH×SEQ ID NO. 10, 2G8LH×SEQ ID NO. 16, 2G8LH×SEQ ID NO. 14, 2G8HL×SEQ ID NO. 12, 2G8HL×SEQ ID NO. 10, 2G8HL×SEQ ID NO. 16 and 2G8HL×SEQ ID NO. 14 on Kato III (FIG. 8A) cells or cynomolgus EpCAM transfected CHO cells (FIG. 8B) and HPB-ALL cells. Antigen binding was clearly detectable for the anti EpCAM specificities as well as for the anti CD3 specificities. As a negative control for binding to cynomolgus EpCAM, the 5-10LH×SEQ ID NO.
Binding of the bifunctional constructs from cell culture supernatants or binding of purified bifunctional constructs to the human EpCAM antigen on Kato III cells or cynomolgus EpCAM transfected CHO cells and to the CD3 antigen on HPB-ALL cells was tested using an FACS assay. For that purpose 2.5×10⁵ cells were incubated with 50 μl supernatant or with 5 μg/ml of the purified constructs in 50 μl PBS with 2% FCS. The binding of the constructs was detected with an anti-His antibody (Penta-His Antibody, BSA free, obtained from Qiagen GmbH, Hilden, FRG) at 2 μg/ml in 50 μl PBS with 2% FCS. […] The samples were measured on a FACSscan (BD biosciences, Heidelberg, FRG). Antigen binding was clearly detectable for the anti EpCAM specificities as well as for the anti CD3 specificities (see FIG. 8). As a negative control for binding to cynomolgus EpCAM, the 5-10LH×SEQ ID NO. […] The 5-10LH part only binds to human EpCAM.

[5] = target: T3, human CD3 antigen on HPB-ALL cells or human T cells (human, UniProt P07766 22-126; P09693 23-111; P04234 22-103); test: FACS, FITC-conjugated antibody on HPB-ALL cells
T3 construct: natural CD3 complex on cells (HPB-ALL, human PBMC T cells); also called human CD3 complex
T3 sequence (P07766 22-126 limits assumed, chain 1 of 3): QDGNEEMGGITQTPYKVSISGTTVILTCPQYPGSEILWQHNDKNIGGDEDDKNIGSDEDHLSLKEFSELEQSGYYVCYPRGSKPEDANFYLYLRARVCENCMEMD
T3 sequence (P09693 23-111 limits assumed, chain 2 of 3): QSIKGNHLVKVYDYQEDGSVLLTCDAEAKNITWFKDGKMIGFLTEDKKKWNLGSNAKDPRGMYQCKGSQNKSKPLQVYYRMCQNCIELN
T3 sequence (P04234 22-103 limits assumed, chain 3 of 3): as the sequence (Q95LI8 22-103, chain 3 of 3) above, with V5I, K15N, V20I, T32S, N33D, N34I, A64T, N74S counted along it
Procedure: Binding of an Ig comprising SEQ ID NOs. 2 and 4, an Ig comprising SEQ ID NOs. 6 and 8 and mAb FN18 to the cynomolgus CD3 antigen on cynomolgus PBMC and to the human CD3 antigen on HPB-ALL cells (DSMZ No. ACC 483) was tested using an FACS assay. For that purpose, 2.5×10⁵ cells were incubated with the FITC-conjugated Ig comprising SEQ ID NOs. 6 and 8 and the FITC-conjugated Ig comprising SEQ ID NOs. 2 and 4 diluted 1:25 in 50 μl PBS with 2% FCS, respectively. The incubation with the FITC-conjugated mAb FN18 antibody (Biosource International) was performed in 50 μl of undiluted antibody. The samples were measured on a FACSscan (BD biosciences, Heidelberg, FRG). Strong antigen binding on human as well as on cynomolgus cells was detected for the Ig comprising SEQ ID NOs. 2 and 4. For the Ig comprising SEQ ID NOs. 6 and 8, strong binding to human cells but weaker binding to cynomolgus cells was observed. For FN18, strong binding to cynomolgus cells could be observed whereas no binding to human cells could be detected.

[6] = target: T2, cynomolgus EpCAM antigen on transfected …; test: FACS on cynomolgus EpCAM transfected CHO cells against untransfected cells
Procedure: FIG. 7: FACS assay for the detection of the cynomolgus EpCAM antigen on transfected CHO cells. Supernatants of three different anti human EpCAM hybridomas (M79, 3B10, 2G8) were tested for binding.
To generate a cell line positive for cynomolgus EpCAM, a clone of the aforementioned coding sequence of the cynomolgus EpCAM antigen subcloned into pEFDHFR with a verified nucleotide sequence was transfected into DHFR deficient CHO cells for eukaryotic expression of the construct as described in Kaufmann R. J. (1990) Methods Enzymol. 185, 537-566). Gene amplification of the construct was induced by increasing concentrations of MTX to a final concentration of up to 500nM MTX. The transfected cells were then tested for expression of cynomolgus EpCAM using an FACS assay. For that purpose, a number of 2.5×10⁵ cells was incubated with 50 μl supernatant three different mouse anti human EpCAM hybridomas (M79—Fogler et al., Cancer Res. 48 (1988); p. 6303-8; 3B10—Passlick et al. Int. J. Cancer 87 (2000), p. 548-552; 2G8—Balzar et al., J. Mol. Med. 77 (1999), p. 699-712). […] The samples were measured on a FACSscan (BD biosciences, Heidelberg, FRG). The anti EpCAM antibody 2G8 was recognized as cross-species specific and the expression of cynomolgus EpCAM was confirmed (see FIG. 7).

B1: 5-10LH×SEQ ID NO. 16 bispecific single chain antibody (bispecific antibody)
chain: ELVMTQSPSSLTVTAGEKVTMSCKSSQSLLNSGNQKNYLTWYQQKPGQPPKLLIYWASTRESGVPDRFTGSGSGTDFTLTISSVQAEDLAVYYCQNDYSYPLTFGAGTKLEIKGGGGSGGGGSGGGGSEVQLLEQSGAELVRPGTSVKISCKASGYAFTNYWLGWVKQRPGHGLEWIGDIFPGSGNIHYNEKFKGKATLTADKSSSTAYMQLSSLTFEDSAVYFCARLRNWDEPMDYWGQGTTVTVSSGGGGSQVVLTQSPAIMSAFPGEKVTMTCSASSSVSYMNWYQQKSGTSPKRWIYDSSKLASGVPARFSGSGSGTSYSLTISSMETEDAATYYCQQWSRNPPTFGGGTKLQITGGGGSGGGGSGGGGSQVQLQQSGAELARPGASVKMSCKASGYTFTRSTMHWVKQRPGQGLEWIGYINPSSAYTNYNQKFKDKATLTADKSSSTAYMQLSSLTSEDSAVYYCASPQVHYDYNGFPYWGQGTLVTVSAHHHHHH
**Q.** Does B1 bind [1]?
**A.** binds

B2: 5-10LH×SEQ ID NO. 10 bispecific single chain antibody (bispecific antibody)
chain: ELVMTQSPSSLTVTAGEKVTMSCKSSQSLLNSGNQKNYLTWYQQKPGQPPKLLIYWASTRESGVPDRFTGSGSGTDFTLTISSVQAEDLAVYYCQNDYSYPLTFGAGTKLEIKGGGGSGGGGSGGGGSEVQLLEQSGAELVRPGTSVKISCKASGYAFTNYWLGWVKQRPGHGLEWIGDIFPGSGNIHYNEKFKGKATLTADKSSSTAYMQLSSLTFEDSAVYFCARLRNWDEPMDYWGQGTTVTVSSGGGGSEVKLLESGGGLVQPKGSLKLSCAASGFTFNTYAMNWVRQAPGKGLEWVARIRSKYNNYATYYADSVKDRFTISRDDSQSILYLQMNNLKTEDTAMYYCVRHGNFGNSYVSWFAYWGQGTLVTVSAGGGGSGGGGSGGGGSQAVVTQESALTTSPGETVTLTCRSSTGAVTTSNYANWVQEKPDHLFTGLIGGTNKRAPGVPARFSGSLIGDKAALTITGAQTEDEAIYFCALWYSNLWVFGGGTKLTVLHHHHHH
**Q.** For B2, which “EC50 (half maximal killing), FACS-based cytotoxicity, Kato III target cells, human PBMC effector cells” value [2] is on record?
**A.** 0.0058 ng/mL

**Q.** And the “EC50 (half maximal killing), FACS-based cytotoxicity, Kato III target cells, cynomolgus PBMC effector cells” value [3]?
**A.** 0.052 ng/mL

**Q.** Does B2 bind [4]?
**A.** no binding (tested: 50 µl supernatant or 5 µg/ml)

B3: monoclonal antibody (mAb) FN-18 (antibody, V domains shown)
VH: QVQLQQSEAELARPGASVKMSCKASGYTFTDYTIHWLKQRPGQGLDWIGYFNPSSESTEYNRKFKDRTILTADRSSTTAYMQLSSLTSEDSAVYYCSRKGEKLLGNRYWYFDVWGAGTSVTVSS
VL: DIVMSQSPSSLAVSVGEKVTMSCKSSQSLLYSSNQKNYLAWYQQKPGQSPKLLINWASTRESGVPDRFTGSGSRTDFTLTISSVKAEDLAVYFCQQFYSYPPTFGGGTKLEIK
notes: tested as bought FITC-conjugated antibody (Biosource International)
**Q.** Does B3 bind [5]?
**A.** no binding (tested: 50 µl of undiluted antibody)

B4: anti EpCAM antibody 2G8 (antibody, V domains shown)
VH: EVQLQQSGAELVRSGASVKLSCTASGFNIKDYYLHWVKQRPEQGLEWIAWIDLENGDIKYAPKFQGKATITADTSSNTAYLQLSSLTSEDTAVYYCNPYYYGSNYDYAMDYWGQGTSVTVSS
VL: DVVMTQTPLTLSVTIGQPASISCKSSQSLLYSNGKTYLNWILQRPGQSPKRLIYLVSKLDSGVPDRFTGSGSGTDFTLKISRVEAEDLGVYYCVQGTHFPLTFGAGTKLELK
notes: mouse hybridoma supernatant; also called 2G8 hybridoma
**Q.** Does B4 bind [6]?
**A.** binds
